Laboratory results as given in patent US20190248902A1 (published 2019).
Numbering of substitutions follows the chain as printed.

B1: 4A2 (antibody, V domains shown)
VH: QVQLVQSGTEVKKPGASVKVSCKASGYTFTNYDINWVRQATGQGLEWMGWMHPNSGNTGYAQKFQGRVTLTRNTSISTAYMELSSLRSEDTAVYYCASSSGWYYFDYWGQGTLVTVSS
VL: DIVMTQSPDSLAVSLGERATINCKSSQSILHSSNNNNYLAWFQQKPGQPPKLLLYWASTRESGVPDRFSGSGSGTDFTLTISSLQPEDVAVYYCQQYYNTPVTFGPGTKVGIK
notes: mAb
B2: 7E11 (antibody, V domains shown)
VH: QVQLVESGGGVVQPGRSLRLSCAASGFTFSSFGMHWVRQAPGKGLEWVAIIWHDGSNKYYADSVKGRFTISRDNSNNTLYLQMSSLRAEDTAVYYCARDLSMGGMDVWGQGTTVTVSS
VL: DIQMTQSPSSLSASVGDRVTIACRASQNIISYLNWYQQKPGKAPKFLIYTASSLQSGVPSRFSGSGSGTDFTLTISSLQPEDFAIYYCQQTYSTPLTFGGGTKVEIK
notes: mAb
B3: 56E5 (antibody, V domains shown)
VH: QVQLVQSGAEVKKPGASVKVSCQASGYTFTGYHMHWVRQAPGQGLEWMGWINPNNNATNYAQKFQGRVTMTRDTSISTAYMELRRLRSDDTAVYHCARDGTSSFDYWGQGTLVTVSS
VL: DIQMTQSPSSVSASVGDRVTITCRASQGIRKWLAWYQQKPGKAPKLLIYAASSLQSGVPSRFSGSGSGTDFTLTISSLQPEDFATYYCQQANSFPFTFGPGTKVDIK
notes: mAb
B4: 5E5 (antibody, V domains shown)
VH: QVQLVESGGGVVQPGRSLRLSCAASGFTFSNYVMHWVRQAPGKGLEWVAVIWYDGSNKYYADSVKGRFTISRDNSKNTLYLQMNSLRAEDTAVYYCTREVYSSGWYDYGMDVWGQGTTVTVSS
VL: DIQMTQSPSSLSASVGDRVTITCRASQGIRNDLGWYQQKPGKAPKRLIYAASSLQSGVPSRFSGSGSGTEFTLTISSLQPEDFATYYCLQHYSYPRTFGQGTKVEVK
notes: mAb
B5: 7G4 (antibody, V domains shown)
VH: B4 VH with S30N, N84T, T97A, V100K, G104N
VL: B4 VL with K39R, F83S, Q90H, H91Q, V106I
notes: mAb
B6: 26C4 (antibody, V domains shown)
VH: B1 VH with T9A, T41S, H52N, K63R, L70M, S77N
VL: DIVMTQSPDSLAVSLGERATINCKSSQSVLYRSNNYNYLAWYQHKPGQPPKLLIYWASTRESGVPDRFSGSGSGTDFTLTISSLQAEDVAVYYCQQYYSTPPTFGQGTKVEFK
notes: mAb
B7: 29H8 (antibody, V domains shown)
VH: B1 VH with T9A, K12Q, H52N, K63R, L70M, T78A
VL: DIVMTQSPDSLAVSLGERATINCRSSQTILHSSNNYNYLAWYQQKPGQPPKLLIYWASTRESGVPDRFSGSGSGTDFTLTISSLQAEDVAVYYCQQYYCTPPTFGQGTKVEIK
notes: mAb
B8: 25A4 (antibody, V domains shown)
VH: B1 VH with Q3L, T9A, K13R, H52Y, L70M
VL: DIVMTQFPDSLAVSLGERATIKCKSSQSVLYSSHNNNYLAWYQQKPGQPPKLLLYWASTRESGVPDRFSGSGSGTEFTLTISSLEAEDVAVYYCQQYYSTPPTFGQGTKVEIK
notes: mAb
B9: 6G7 (antibody, V domains shown)
VH: QVQLVESGGGVVQPGRSLRLSCAASGFTFSSYGMHWVRQTPGKGLEWVAIISYVGKNKYYADSVKGRFTISRDNSKNTLYLQMNSLRAEDTAVYYCARRGNSYGGYGMDVWGQGTTVTVSS
VL: DIQMTQSPSSRSASVGDRVTITCQASQDISNYLNWCQQKPGKALKLLIYDASTLETGVPSRFSGSGSGTDFTFTISSVQPEDIATYYCQQYDNVPITFGQGTRLEIK
notes: mAb
B10: 22G5 (antibody, V domains shown)
VH: EVQLLESGGGLVQPGGSLRLSCAASGFTFSSYAMNWVRQAPGMGLEWVSVISRSGGYTYYADSVKGRFTISRDNSKNTLYLQMNSLRAEDTAVYYCASRLAVAGSEAFDIWGQGTLVTVSS
VL: DIQMTQSPSSLSASVGDRVTITCRASQNISSYLNWYQQKQGKAPKLLIYAASSLQNGVPSRFSGRGSGTDFTLTISSLQPEDFATYYCQQSYRTPLFTFGPGTKVDFK
notes: mAb
B11: 48B12 (antibody, V domains shown)
VH: EVQLLESGGGLVQPGGSLRLSCAASGFTFSSYAMNWVRQAPGKGLEWVSAISGRGGNTFYADSVKGRFTISRDNSKNTLYLQMNSLRAEDTAVYYCAKRETYNWNYEGFDYWGQGTLVTVSS
VL: SYELTQPPSVSVSPGQTARITCSGDALPKKYAYWYQQKSGQAPVLVIYEDSKRPSGIPERFSGSSSGTMATLTISGAQVEDEADYYCNSTDSSGNHVVFGGGTKLTVL
notes: mAb
B12: 184E7 (antibody, V domains shown)
VH: QVQLVQSGAEVKTPGASVKVSCRASGYTFTSYNMHWVRQVPGQGLEWMGWINPNNGGSNYTQKFQGRVTMTRDTSISTAYMELSRLRSDDTAVYYCARKFGDWGQGTLVTVSS
VL: DIQMTQSPSSRSASIGERVTITCRASQGISNYLAWIQQKPGTAPKSLIYAASSLQSGVSSRFSGSGFGTDFTITISSVQREDFATYYCQQYNGYPFTFGHGTKVDIK
notes: mAb
B13: 72G9 (antibody, V domains shown)
VH: EVQLVESGGGLVKPGGSLRLSCAASGFTFSSYSMNWVRQAPGKGLEWVSSISGSSSYIYYADSVKGRFTISRDNAKNSLYLQMNSLRAEDTAVYFCARGGSRGFDPWGQGTLVTVSS
VL: B3 VL with V11L, G28S, R30T, K31S, W32Y, A34N, A50T, A91S, N92H
notes: mAb
B14: 194A4 (antibody, V domains shown)
VH: QVQLVQSGTEVKKPGASLKVSCKASGYTFTVYYLNWVRQAPGQGLEWMGWINPNSGGTNYAQKFQGRVTMTRDTSISTAYMELSRLRSDDTAVYYCARGYDILTGWGQGTLVTVSS
VL: EIVLTQSPGTLSLSPGERATLSCRASRGVSNIYLAWYQQKPGQAPRLLIYGASNRATGIPDRFSGSGSGTDFTLTISRLEPEDFAVYYCQHNDYSMFTFGPGTKVDIK
notes: mAb

The binders below were run against T1, human ASGR-1 mutant construct H203 (human, UniProt P07306 1-291) (assay: FACS, transfected CHO-S cells, mAb 5 ug/ml).
T1 construct: Arg/Glu scanning: non-arginine residues were changed to arginine; Transiently expressed on CHO-S cells
T1 sequence: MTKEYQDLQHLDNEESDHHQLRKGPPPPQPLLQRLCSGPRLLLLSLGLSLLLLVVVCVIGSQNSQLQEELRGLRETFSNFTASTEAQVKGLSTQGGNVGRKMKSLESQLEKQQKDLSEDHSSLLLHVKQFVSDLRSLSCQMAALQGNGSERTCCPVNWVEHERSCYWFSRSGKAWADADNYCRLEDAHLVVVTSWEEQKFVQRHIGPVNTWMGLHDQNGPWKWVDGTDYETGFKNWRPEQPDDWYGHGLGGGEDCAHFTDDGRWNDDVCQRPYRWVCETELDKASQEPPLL
Summary of the method: (§1)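 Transiently transfected CHO-S cells expressing wild-type or mutant hASGR-1 incubated with antibody at 5 ug/ml, 1 h at 4 °C; bound antibody detected by Alexa Fluor 647 anti-Fc plus 7-AAD, by flow cytometry. Binding normalized to expression using an unaffected antibody (65C12), then to wild type; hits defined as >3× IQR above third quartile.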

| Binder | FACS Binding Geomean |
| --- | --- |
| B1 | 18900 |
| B2 | 14700 |
| B3 | 20300 |
| B4 | 12600 |
| B5 | 18500 |
| B6 | 13500 |
| B7 | 13200 |
| B8 | 20000 |
| B9 | 15100 |
| B10 | 15100 |
| B11 | 20500 |
| B12 | 18400 |
| B13 | 18800 |
| B14 | 12100 |

The binders below were run against T2, human ASGR-1 (wild type) (human, UniProt P07306 1-291) (assay: FACS, transfected CHO-S cells, mAb 5 ug/ml).
T2 construct: also called wt ASGR1; huASGR-1
T2 sequence: T1 sequence with R203H
Summary of the method: as §1

| Binder | FACS Binding Geomean |
| --- | --- |
| B1 | 41100 |
| B2 | 45500 |
| B3 | 42600 |
| B4 | 40700 |
| B5 | 48500 |
| B6 | 46000 |
| B7 | 40900 |
| B8 | 55600 |
| B9 | 38600 |
| B10 | 45000 |
| B11 | 52500 |
| B12 | 42700 |
| B13 | 36500 |
| B14 | 16300 |

The binders below were run against T1, human ASGR-1 mutant construct H203 (assay: FACS ratio: H203 normalized value / wt normalized value).
Summary of the method: as §1

| Binder | Normalization to wt ASGR1 Binding |
| --- | --- |
| B1 | 0.997 |
| B2 | 1.42 |
| B3 | 0.962 |
| B4 | 1.48 |
| B5 | 1.2 |
| B6 | 1.57 |
| B7 | 1.42 |
| B8 | 1.27 |
| B9 | 1.18 |
| B10 | 1.37 |
| B11 | 1.18 |
| B12 | 1.07 |
| B13 | 0.893 |
| B14 | 0.616 |

Each binder was assayed against T2, human ASGR-1 (wild type) (assay: flow cytometry, CHO-S:huASGR-1 cells, 11-point titration).
Protocol: CHO—S stable high-expressing cell line were developed for both human ASGR-1 as well as mouse ASGR-1. A typical 384 well plate multiplex flow cytometery-based cell binding method is described as followed: Parental CHO—S cells and CHO—S:huASGR-1 cells were respectively labeled using a CellTrace CFSE Cell Proliferation Kit (ThermoFisher Catalog #C34554) and CellTrace Violet Cell Proliferation Kit (ThermoFisher Catalog#C34557) CHO—S:muASGR-1 were not labeled. 20 ul of cells at 4C were added to duplicate wells of the 384 well plate. The cells were equally mixed from all three cell lines (30K cells/well). Then 20 ul of the ASGR-1 antibodies (either purified from hybridoma supernatants or made recombinantly) were added in an 11-point dose response using a 1:2 fold serial dilution starting at 100 nM. The cells and antibodies were incubated for 30 min at 4C and then spun down and washed twice with FACS buffer containing 1 mM CaCl2. 30 ul of anti-hulgG-APC secondary antibodies were then added at a 1:1000 dilution) for 30 min at 4C and then washed once with the same buffer. 60 ul of PI (1:1000) was added and then the cells were read by a core flow cytometry facility. The cells were gated first for live cells, then for single cells and finally for the cell dyes to separate the mixed cells into the three different cell populations. Histograms of signal vs count representing the binding profile of each antibody at each antibody concentration were automatically analyzed for the median of the binding signal and then a binding graph was made with log 10 antibody concentration in nM on the X axis with […] from the duplicate wells on the Y-axis. The binding curves were fit with a standard four parameter sigmoidal binding curve and EC50's reported for all graphs with full curves.

| Binder | EC50 [nM] |
| --- | --- |
| B1 | 0.82 |
| B2 | 1.4 |
| B3 | 1.1 |
| B4 | 3.8 |
| B5 | 0.69 |
| B6 | 11 |
| B7 | 1.9 |
| B8 | 1.6 |
| B9 | 0.6 |
| B10 | 7.2 |
| B11 | 38 |
| B12 | 1 |
| B13 | 0.41 |
| B14 | 25 |
